From the DeepSol protein solubility set

experiment: soluble on expression in E. coli; label from the status in PepcDB or PDB records

| Sequence | soluble on expression in E. coli |
| --- | --- |
| MDEQEFRKQLTLKPVEEEHIDQFNELLSYVFQVTEADIEESGFENKRAFIKSKQPILELSKVFGWFHENQLISQIAIYPCEVNIHGALYKMGGVTGVGTYPEYANHGLMKDLIQTALEEMRQDKQWISYLFPYNIPYYRRKGWEIMSDKLSFKIRDTQLPKTVPVPGMIERLAVDHPDVFDVYARFARQNHGALIRSAFNWEEYWRFENEEERTAAVYYGANQEPLGVLFYWVADEVFHIKEMFYLNQEARNGLWNFITAHFSMVYWVKGDIYKNEPLAFLLEDSQIKESIEPYYMARIVDVKAFLENFPFESTAKPFHFVVKDPVAEWNNGIFGLIWDENDQVTITDEPLGTAVHLDIQTLTCLVMNYRRPSYLHRIERIDTDKETLNSLERIFPDQEAYFSDYF | soluble |
| MDFDRIAMRTTDPAWQKGSAPATPSPVEADAKVTMRLRYTKTGAMRYLSHLEMIGLFTRAVGRARLPIRFSQGFHPHPKFSFATALSVGVESWAEYLDMELIPSLTPGEVRDRLNAALPEGMRIVEAVVIPPGTPSLSVLMDKVRYRIILLEEAARDLAARAEAFLARDSFPLRRAKKGRIQEYDLEHHHHHH | not soluble |
| MDFLKQPCAPLDFDLSREQIEGMLRSARFIKGSFSTRVVGHLPIDNSFRQVSVAIENETSSSIEIMTLERGDTFCGIPLKQRKIPFQNSLKSADIDFTYDDSGIDLTNAPVSFFIEGGRVASICWHHKHRN | not soluble |
| MDGEEKTYGGCEGPDAMYVKLISSDGHEFIVKREHALTSGTIKAMLSGPGQFAENETNEVNFREIPSHVLSKVCMYFTYKVRYTNSSTEIPEFPIAPEIALELLMAANFLDC | soluble |
| MDHALFTHFVGRPRHCRLEMLILDEQVSKRSWDTTVYHRRRKHLPRRRAPCGPQRPAEIPKRRKKAAVLLFWHDLCWLFRRLFFPREDSEPLMSDPARSPEEEELEHHHHHH | not soluble |
| MDILFRIRGGFDLAFQLAPPKEMFIKNALRQVLSDLTTKLSSDALVLRVCNSSVYLWPNSDANTGELTDSSACKNVVRFIQFDQEEDTKRKFIKKKDKKLTDTQQIVNIDLMLEISTPLGAVTPILERENEEHHYINMSLPIDAVVSVAPEESWGKVRKLLVDAILRQLVDVEKCILRYMKGTSIVVPEPLHFQLPGKKNLVTVLYPSGIPDDQLQAYRKELHDLFNLPHDRPYFKRINAYHFPDELYKDGYIRNPHTYLSPPNIEGSMICVVQGTYAYHHYMQDRIDDNGWGCAYRSLQTICSWFRHQGYTERSIPTHREIQQALVDAGDKPATFVGSRQWIGSIEVQMVLNQLIGVTSKILFVNQGSEMASQGRELANHFQNVGTPVMVGGGVLAHTILGVAWNETTGQIKFLILDPHYTGAEDLQVMLEKGWCGWKSPDFWNKDAYYNLCLPQRPNAL | soluble |
| MDILLVDGYNMIGAWPQLKDLKANSFEEARDVLIQKMAEYQSYTGNRVIVVFDAHLVKGLEKKQTNHRVEVIFTKENETADERIEKLAQALNNIATQIHVATSDYTEQWAIFGQGALRKSARELLREVETIERRIERRVRKITSEKPAGKIALSEEVLKTFEKWRRGDLDLEHHHHHH | not soluble |
| MDILSDIANAVLPQDVVSKVESKRAVAVLRGTAVFGTVWLTQKAEGEETEFEGEIKGLSPGLHGFHIHQYGDSTDGCTSAGPHFNPCKMNHGGRDSVVRHVGDLGNVEAGADGVAKIKFSDKVVSLFGANTVIGRSMVVHVDRDDLGQGIDDKAEESLKTGNAGARAACGVIALAAPA | not soluble |
| MDIPVFTMVGEWKCKEGEWKFEPKEGIFGRCVRVQETMTYTDFVRTLREAFSLKSTEINPIISYWMLGEMSVLIDTKHPPVYIDSQMGLETFFFGSWWVSFSQLVRLFQ | not soluble |
| MDIQTRKSILWDAFEELKTRWGADEKFLERVEEEELTVDGLPESKVRDLIELREKYQLDELEFLFIVGTAVGLYQGQKQVKEILQRRMSALNEFVSSLVGREL | not soluble |
| MDITNIKEMNYEEVFSITITVDKPILIGQDDIVGRRQLIPIISGKVSGNNFNGKVLPGGIDSQIVRPDGKCELSARYAIRLDDGAAIYIENNGIRTVPDEYIEAVKSGEFVDPNAYYFRTIPTFETYSPKYKWMMNHIFVCCASRLPENVLLKFYKIS | soluble |
| MDIVLVGCKGFGKEHLRIYSKLGYDVSIVERDSNEAKRCSELFRVYKVYDNYEDALRSGSNIVDLVVPDGLHYEMGSLALKSKKHLLVEKPITPDIDSGISLIQQAEESKLKLMVAEQFYFDPSVNEAIRRINNGEIGKPHTVIVRHQSFRELKGWRNEKSMMGRGILIDEGTHYIDTLLNFGGRYRSLRSFVHRTWDFLGEDTAEAVFNFENGMHGLFFYSWNYPEYPLLPEFEIIGDAGSIYEDIGTKPTEPWDQRKRKTAYGDIIVNGKHIPVEPYDVIEREISGFLNAVEKDEPVPMPPDLALRDIITIDRIYKASSD | not soluble |
| MDKKVTDSTQRGYYIVYLFSEDMCRLYLTLTQRVTETPRDEMERVKQDIRQQIPVGGRVQTDNAIRLSASKRAKEYERSVAVYIAYSFDNLPSDEQLVSDLKTMIGYYRQYVERTEKMTPFKQSLSDRSVVEHIHFYITAKGFYYTQEEVMNLFLSLKTKPFVILSGISGTGKTKIAQWLAESVGATEDNGQFILIPVCPDWNDGSDLLGYVDIKGDFKPGPLTNVITEAENHPDKPYFVVLDEMNLARVEHYFSDVLSVMGSRRWENGRITLSRLLPKETAGRDLFLPPNVYIIGTVNMDETTHPFSKKVLDRANTIEFNRIRLDHLDFLRDLPTVAPLSGGQEWFAARLEHHHHHH | not soluble |
| MDKQSLHETAKRLALELPFVELCWPFGPEFDVFKIGGKIFMLSSELRGVPFINLKSDPQKSLLNQQIYPSIKPGYHMNKKHWISVYSGEEISEALLRDLINDSWNLVVDGLAKRDQKRVRPG | not soluble |
| MDKSNGLRVILFPLPLQGCINPMIQLAKILHSRGFSITVIHTRFNAPKASNHPLFTFLQIPDGLSETETRTHDITLLLTLLNRSCESPFRECLTKLLQSADSETGEEKQRISCLIDDSGWIFTQPVAQSFNLPRLVLNTYKVSFFRDHFVLPQLRREMYLPLQDSEQGDDPVEEFPPLRKKDLLQILDQESEQLDSYSNMILETTKASSGLIFVSTCEELDQDSLSQAREDYQVPIFTIGPSHSYFPGSSSSLFTVDETCIPWLDKQEDKSVIYVSFGSISTIGEAEFMEIAWALRNSDQPFLWVVRGGSVVHGAEWIEQLHEKGKIVNWAPQQEVLKHQAIGGFLTHNGWNSTVESVFEGVPMICMPFVWDQLLNARFVSDVWMVGLHLEGRIERNVIEGMIRRLFSETEGKAIRERMEILKENVGRSVKPKGSAYRSLQHLIDYITYF | soluble |
| MDKSSDAFRTISEVAELLELPQHVLRFWETRFKQIKPMKRGGGRRYYRPVDIDLLNGIKQLLYDQGYTIKGVQRLLKENGVAFVTAFGNGDLDAMNVVIEKKHGEQTSEVTSSKPKKSSFGLLSFMRNEVETSIGSVNVYKDKTDKALLQEILFELIECKRVLDRAR | not soluble |
| MDKYHSMKELQNETIENEDWEIITEDRDSNVTILAIHGGGIEPATTELARVIANDGQFNYFAFNGMRTKGNNELHVTSINYDNDIAMDLVKTSESAITIHGCLGEDEIAYIGGKDNLLKERIVEELSQIGIEVKEAPSHMSGTQDNNIVNCTKNGVGVQIELTSSLRKSLFKNNKFNRKSRMDESNWDDKMYDFGQAINSAINLEHHHHHH | soluble |
| MDLAAHIDHTLLKPTATLEEVAKAAEEALEYGFYGLCIPPSYVAWVRARYPHAPFRLVTVVGFPLGYQEKEVKALEAALACARGADEVDMVLHLGRAKAGDLDYLEAEVRAVREAVPQAVLKVILETGYFSPEEIARLAEAAIRGGADFLKTSTGFGPRGASLEDVALLVRVAQGRAQVKAAGGIRDRETALRMLKAGASRLGTSSGVALVAGEGGTLGY | soluble |
| MDLDQLDLNPRITAAVKRGRLKSVKEILCYSGPDLQRLTGLPSHDVQCLLRAASLHLRGSRVLSALHLFQQKESFPEQHQRLSLGCPVLDQFLGGGLPLEGITGLAGCSSAGKTQLALQLCLAVQFPRQYGGLEAGAVYICTEDAFPSKRLWQLIAQQRRLRTDAPEELIEKIRFSNHIFIEHAADVPHFVVSSTFRPQPSGRSSCSRWGPHCED | soluble |
| MDLFDTPLAPLQVLDDAEGGVRYWPQLLAPAVAQAAFAALRDGADWQRHQRTMYDRVVDVPRLLASYRLDAPLPPGLPLQLLLAAVQAQLPAPYNAVGLNLYRDGRDSVAMHHDKLHTLLAPHPIALLSLGTPRRMQLRAKQGATRAITLELAPGSLLAMSHASQLTHEHGIPKTTRALGERISVVFRVRPPARMAAGQHGPHWEALTQTDLEHHHHHH | soluble |
| MDLFSQFFQENQKKFLSFAYSYTRNKAAAEDILMEAMVSLWENREKWEKDSNLHALLLTIIKNKSLNYLEHEQVRMKAEEAINTHKQRELDLRISTLEACEPATIFDTEIQRIVYKTLEQLPEQSRHIFILSRYHNTPNKKIAEQLGISIKSVEFHITKTLKLLRLELKDYLISLLF | not soluble |
| MDLISGEADPSESRAAERPGTAPLQGLVTFNRLELNRILNLYGRMVAAGEWRDYAIDFLKDTAVFSIFRRASEVPIYRIVKDPRLARKQGAYSVIGASGQILRRGHELERVLLVIDRKLALV | not soluble |
| MDLTASLEDDQREKLRQYTEFTHQQDYEVAIGTLASLNWNLEQAIEAHLMQEDKNDDEDPEILETIPAAASGRNAGASSSSRFEPEVINIEDDEMPATRGRRRGRAVTPDETTTVDNQVKRLRIDDGSSSSSNGAATHHRGAAIPRQKRGQATEPTPSSSGSSSASFSSRRGTRANPVPPPNQEPAHPESARQNGGILASRHNNHNNQQNNHHHHHQRIPINPRRVDVFNVDSDEDDDSMAIAYEDDDDGVHEVHHSEVCEKDRAISAFLAPKLGNEVVARGSGPPNGRIPMIPDGFSSVSDALRNFVAIFSDRFCSTPQTQAFMPPFYTEPLPAAVKEAFDHPNSEHRRPLLFYINHDRSIAANIFASQVLCSETVSTLIRHQYVLFPWDITSDSNLMLFLEYLQAANMGDVRTIIQRLAMSKIESFPLMAIVVKERNSYRLVDYCRGTDTSDQVMEKLLSGVSEYSDIRMNEQSERREREEREAIRNQQEAEYKASLAADKARMEAKQQEIEEQRLEEERKLREEEEECVRRQTVASTVPEEPPASAPLAEIINVKFRLPEGGQDMRRFRRLESIQTLINYLSSKGYSPDKFKYFNSDFPKKEITRHFDLSHNFADTKWPAREQIFVEEI | not soluble |
| MDLTELFAFLSIPSVSTDPARREDVRRAALWLEERLKARGFRTELHETPLHPILYAERFVDEKAPTVLVYGHYDVQPPDPLELWESPPFSPVVREGRIYARGAFDDKGQLFAHVLAAEEAPVNLKFLVEGEEEIGSPHLPPFVRANREKLRADVVLVSDGAMFAPHTPTLTYGLRGLCYLEVRLRGARRDLHSGAFGGVAPNPIQALGWLLARLKDEGTGRVLIPGFYERVRPVPEEEKALWPSLDEEALKRELGVEILPGEEGYAPLERLWARPTLDPNGIWGGYQGEGSKTVIPAEAGMKLSMRLVPDQDPEEVADQAEAYLKAVCPPGYALEVRRLHGGRPVLTDPFSPPMRLMARALEEVWGRPPVYTREGGTIPVVAELKETLGAPIVLLGLGLPDDNLHAPNEKLDLVNLEKGVEVIRRFHRLLAG | soluble |
